A short description of the data set: soluble on expression in E. coli; label from the status in PepcDB or PDB records.
Take “MGSDKIHHHHHHMSVFLRNAWYMACWSHEVPEGGFLARRLLDKPWVIWRKADGTPVIMADRCPHRFVPLSRGQRDGDMMRCGYHGLAFSSSGGCVHNPFTDEALPLARVEVLPVVEKHTGLWFWPGDADRADPALIPDFGFLDVERPLHRGHLKMDAGYELVTDNLMDLSHAEFIHRDSFGVNGSLLTCGQHEVVQDEGGAIWNNWTMPDSEPPSWAVAMLPEGARTDQWLHMRWNAPSCLALFLGLARSGTDRKDMVVPPMADPHILTPETVTSTHYFYTHEPTPEAHALLEKAFLEEDHPMLHAQQEAMGSADFWDLRPVVLPSDAGAIRVRRRMMQLRRAEAGLEEEAAA”: the “soluble on expression in E. coli” value was “not soluble”. Under “SLAGVSYAAPWWVSLLHRLPHFDLRWEATSSQFRPEDADYQQAASAYGNGETSDGIHRATYSLRHANRTVAGVQDRVWDTAAALNRTAEPNLQSLERQLAGRQEPLRAVQRLQTGAARSSKGSAACSIPHTWQQKRGPDDDGEEETAPGPR” stands “soluble”; under “MSLKNREWYKDAVFYEVLVRAFYDPEGNGVGSLKGLTEKLDYIQWLGVDCIWIPPFYDSPLRDGGYDIRNFREILPEFGTVDDFVELIDHAHRRGLRVITDLVMNHTSDQHAWFQESRRDPTGPYGDFYVWSDDPTLYNEARIIFVDTEESNWTYDPVRGQYFWHRFFSHQPDLNYDNPAVQEAMLDVLRFWLDLGLDGFRLDAVPYLFEREGTNGENLKETHDFLKLCRSVIEKEYPGRILLAEANQWPQDVVEYFGEKDKGDECHMAFHFPLMPRIFMGVRQGSRTPISEILANTPEIPKTAQWGIFLRNHDELTLEMVSDEERSYMYSQFAMEPRMRANVGIRRRLSPLLEGDRNQLELLHGLLLSLPGSPVLYYGDEIGMGDNIWLHDRDGVRTPMQWSNDRNGGFSKADPERLYLPAIQNDQYGYAQVNVESQLNRENSLLRWLRNQILIRKQYRAFGAGTYREVSSTNESVLTFLREHKGQTILCVNNMSKYPQAVSLDLREFAGHTPREMSGGQLFPTIAEREWIVTLAPHGFFWFDLTADEKDDMEEGHHHHHH”, “soluble”; under “EVVVTGMQKMDKRLFTGAATKLDAEGVKLNGMADISRGLEGRAAGVSVQNVSGTFGTAPKIRVRGATSIYGSSKPLWVVDGVIMEDAVEVSADQLSSGDAETLISSAIAGLNADDIESFQILKDGSATSIYGARAMAGVIVVTTKKGK”, “not soluble”. For “LKVLKRFDIETDYGSAIIADTITGRIEYTVATGGCIFPEVSRTIQTLENMGASVFIASGDSRKFIERLGNIVGVQNKCLMPEAHHKLKRDLILNLKQDGYTVIMVGDASNDILAMEESDLSVITLQNGNVSKKALETAQIKIENISEI”, the “soluble on expression in E. coli” value was “not soluble”. Under “MGSDKIHHHHHHMITISHITAKNMYKSLEERINKFPQGAPPSDTLYKILNVLYTEQEAKLVAQLPIKPFRVKTAAKIWSVSESEAYRVLDKLASKALILDIEDNKGKKYIMPPPMAGFFEFAMMRTRHDIDQKLLAELYYQYMNVEEDFIKDLFYSTETKLGRVYVQEEVLTNDNEVSILDYERATHIIDESTHIGISMCYCRHRMQHVGKACDAPMDICMTFDNVANSLINNKFARRVDKIECKELLHQAYEHNLVQCGENVRKGVTFICNCCGCCCEAMVAAKRFGNLHPVQTTSFIPNINHENCVKCGKCITACPIDAISKVKEDGKEYIKIDEDRCLGCGVCVRNCHKNSIMLLKRDEKIITPANSVHRAVLMAIEKGQLQNLIFDNNALASHRAMGAILSAILKLEPAKKILASKQLKSVYLDKLLSMNDK” stands “not soluble”; under “MSLLIETTMTFLCPLCEHPLTLNQNTYACINRHQFDVAKEGYVNLMPVQHKRSKDPGDNKEMTQARRRFLHTGHYAPMREKVATLCQTYLTDRQQTLLDIGCGEGYYTDFFAKALRQQDSEAQIFGLDISKIAIRYAAKRYPECQFAVASSHRLPFANQSLDGVIRIYAPCKDTELERCIKIGGIVITVTPAARHLYQFKQGIYDQVRLHEEQPETLSGFELVEECKLHYPMALNGSEAADLLQMTPFAWRASEDFKHRVSQSDTFECEADFMLRVYRRKEGHHHHHH”, “soluble”; under “MSLNKLAFLFPLLLAPGVAHAEPPQGVEFLHWWTSDGEQQALQTLKAQLKRHDIELLQSPVLGGGGDSAMTVLQARALAGNPPSFAQIEGPSIKAWDAIGILHNVNAVADEQRWDEVLYPLSIEINKTQNGYIALPLTLHRLNWLWVNHKLLKQLNLSAPKNWQEMFAAMELAEQNGIVPIAVGEQPWQVAQLFENLVISTGGVEFYTNAMVKLERDSIDSETLRQALTQFRRLSLLIDNQLPDSKWDTATQALADGQALFQIGGDWILGELLANQVSVPQEVGCYPTPDSDGVFLYNMDSLVFMSSKSFSSEAAQQTASALADVEFQAKFNKVKGSIPVRTDIDISDFNPCQVQSYQDFHYGVKHNLAVPSMIDSMAVNPVAQQAINSEIFRFYRNPKMEPDELIKRIIAISQSGEGHHHHHH”, “soluble”. The entry for “MSWQNQGMQALIPVINRVQDAFSQLGTSVSFELPQIAVVGGQSAGKSSVLENFVGKDFLPRGSGIVTRRPLILQLIQDRNEYAEFLHKKGHRFVDFDAVRKEIEDETDRVTGQNKGISPHPINLRVFSPNVLNLTLIDLPGLTKVPVGDQPADIEQQIRDMILTFINRETCLILAVTPANSDLATSDALKLAKEVDPQGLRTIGVLTKLDLMDEGTDAREILENKLFTLRRGYVGVVNRGQKDIVGRKDIRAALDAERKFFISHPSYRHMADRLGTSYLQHTLNQQLTNHIRDTLPTLRDSLQKKMFAMEKDVAEYKNYQPNDPGRKTKALLQMVTQFNADIERSIEGSSAKLVSTNELSGGARINRLFHERFPFEIVKMEIDEKEMRKEIQYAIRNIHGIRVGLFTPDMAFEAIAKKQITRLKEPSLKCVDLVVNELANVIRQCADTMARYPRLRDELERIVVSHMREREQIAKQQIGLIVDYELAYMNTNHEDFIGFSNAEAKASQGQSAKKNLGNQVIRKGWLSLSNVSFVRGSKDNWFVLMSDSLSWYKDDEEKEKKYMLPLDGVKLKDIEGGFMSRNHKFALFYPDGKNIYKDYKQLELGCTNLDEIDAWKASFLRAGVYPEKQKAQEDESQQEMEDTSIDPQLERQVETIRNLVDSYMRIITKTIKDLVPKAVMHLIVNQTGEFMKDELLAHLYQCGDTDALMEESQIEAQKREEMLRMYHACKEALRIISEVNMSTLGDQPPPLPMSDYRPHPSGPSPVPRPAPAPPGGRQAPMPPRGGPGAPPPPGMRPPPGAPGGGGGMYPPLIPTRVPTPSNGAPEIPARPQVPKRPF” is “not soluble”; for “MSNDHLETTGSSDPNTNLLKYLPIVLNPDRTITRPIQIPSTAASPDPTSSSPVLTKDLALNPLHNTFVRLFLPRHALYNSAKLPLVVYFHGGGFILFSAASTIFHDFCCEMAVHAGVVIASVDYRLAPEHRLPAAYDDAMEALQWIKDSRDEWLTNFADFSNCFIMGESAGGNIAYHAGLRAAAVADELLPLKIKGLVLDEPGFGGSKRTGSELRLANDSRLPTFVLDLIWELSLPMGADRDHEYCNPTAESEPLYSFDKIRSLGWRVMVVGCHGDPMIDRQMELAERLEKKGVDVVAQFDVGGYHAVKLEDPEKAKQFFVILKKFVVDSCTTKLKLN” it is “soluble”.

“MPLFAGFSPRSGQGDLAEFVDIINGARRDLLFVTAFALPDSILDALLGQPHDDVLRYGLQNTASRITGFHADRTAEFAATALLNNGLEGWLKEGLKGQKGNLLVHTKAIVTDFTSEAPVIISGSHNLSVGASQSNDENFLIIRGDIDLEHHHHHH”: the “soluble on expression in E. coli” value is reported as “soluble”.

For “MTSAYFGVAGGGNAGAQSAYFGVGGGPAGGGGGNKSAGGGGAPPPGVSCYLGAGAGGAASGSQSAYFGVGGGPVGGGGGGGAPPAASNDAGYFATPPAAPAGGSSTMTAVGGAPRGASTMTAVGGAPVGGSSTMTAVGGAPSGASTMTAIGGAPRGASTMTAVGGAPMGGGSTMTAVGGAPSGASTMTAVGGAPSGASTMTAIGGAPRGASTMTAVGGAPMGGSSTMTAVGGAPIGGSSTMTAVGGAPRGASTMTAVGGAPGGASTMTAMGGGPSAFGGAPPPPSGSAMGGGGGGGATSAYFGVGSGAMGGGGAGAQSAYFGVGGGPVGGGGGGAKSGGGGGGIPGQSVYMGAGGGGGGGGGGGATSAYFAPR”, the “soluble on expression in E. coli” value is reported as “not soluble”. “MGSDKIHHHHHHMGIGRGYAVWSPRSIYLTDFVYANFLEELIMQTLIIYSTIDGQTLAICQKMKTIAEQAGEQVALVTLEQADALSLADFDKVLIGASIRYGKHRPELYQFVNRHHAVLDTKINGFFTVNVVARKPLKNTPETNPYMQKFLQLSLWQPQLLEVFAGKIDYPKYGFFDRTMIRFIMWMTKGPTDITGTFEFTDWEKVDAFGNRFSQH”: the “soluble on expression in E. coli” value is “not soluble”.

For the sequence “GPGSMDDLVAVRIKDGIFAGNAGAAADKTLLIMNKITHIINCAGAEVADFFLGEPGFSYLSFPWKDAAGSVCTTILFDAGDDNIHRVVQFIDEALAAGECVLVHSVYGNSRSPALIAAYMIMKYGWKLESALLYLKMAHPDSDIKPHFQRQLRQFAKRHEVDHDIFAQDVDDSQFGLDNDQWMLRNTLLNGLLYKDQMANDLYRQCAEKVDVGNPVNGKAKKAHITFVDTKKGTDA”, the “soluble on expression in E. coli” value is on record as “not soluble”. In the case of “MSLATIATLRVLLLAIPDDAAPESDLNLVSWTILNGLRRECERRGIRIVPFVSTGRRIDGAQVRQMALAERADGIVVLNDDQPELIRSLASPDMPVVIVNGEDPAMLVDTVTPENRFGARLGIEHLLALGHRRILHLTWKGRTTIQRRYDGFSDAYLAAQLPVPDNMVVEAEGYEPRHGEAAINALLDRDATVKGATAVFCAADNMALGCLKALADRDIRVPEAISVLGFDDIVPGEFSRPPLSTVSVPTDKLGAAALALIEQRLIANDPQRPAHRLELGCHLVLRGSEGHHHHHH”, the “soluble on expression in E. coli” value is recorded as “not soluble”. Take “MGSDKIHHHHHHMANPLTGYNFAYLDEQTKRMIRRAILKAVAIPGYQVPFGGREMPMPYGWGTGGIQLTASVIGENDVLKVIDQGADDTTNAVSIRQFFKRVTGVATTERTEDATLIQTRHRIPETPLVEDQILIYQVPIPEPLRFIEPRETETRTMHALEEYGVMQVKLYEDIARFGHIATTYAYPVKVNGRYVMDPSPIPKFDNPKMHMMPALQLFGAGREKRIYAVPPYTPVESLDFDDHPFTVQEWDEPCAICGSRHSYLDEVVLDDSGQRMFVCSDTDYCRQQSEGQKK”: the “soluble on expression in E. coli” value is on record as “not soluble”.

On to “MDLGSFGRIPPQNIEAEQSVLGAILLDKEVLSSVTEIISSQDFYREDHREIFEAIMDLYEKGEPIDLITVAEQLKVRGSLEAVGGLEYLTNLASLVPTTANAKHYAKIVEEKSILRRLIKASSEIINMGYEAAEEVSYVLDKAEKSIFDVLQKRNTQGFALIKDVLIDTFNRLEELYNNKGYITGIPTGFVDLDYKTAGLQNSDLILIAARPAMGKTSFVLNIAQYAAIHAKVPVAIFSLEMSKEQLVNRMLCCEAMVDSQKMRTGKLEDSDWQKVARALGPLSEAPIYIDDTPGLSVAEIRAKCRRLKLEKNLGLVVIDYLQLMQGRGKSESRQQEISEISRSLKILAKEINVPVLTLSQLSRAPELRSDHRPILSDLRESGAIEQDADIVMFLYRDDYYNPDTEKKNIAEVIIAKHRNGSTGTVELAWLGQYTKFANLEKYRQ”, for which the “soluble on expression in E. coli” value is “not soluble”.

Values taken from the DeepSol protein solubility set.
